This is an account of results in article PMC5094776, “The miR165/166 Mediated Regulatory Module Plays Critical Roles in ABA Homeostasis and Response in Arabidopsis thaliana”.

This data set has as its target T1, GST-PHB (PHABULOSA, HD-ZIPIII) (Arabidopsis thaliana, UniProt O04291 1-852).
T1 sequence: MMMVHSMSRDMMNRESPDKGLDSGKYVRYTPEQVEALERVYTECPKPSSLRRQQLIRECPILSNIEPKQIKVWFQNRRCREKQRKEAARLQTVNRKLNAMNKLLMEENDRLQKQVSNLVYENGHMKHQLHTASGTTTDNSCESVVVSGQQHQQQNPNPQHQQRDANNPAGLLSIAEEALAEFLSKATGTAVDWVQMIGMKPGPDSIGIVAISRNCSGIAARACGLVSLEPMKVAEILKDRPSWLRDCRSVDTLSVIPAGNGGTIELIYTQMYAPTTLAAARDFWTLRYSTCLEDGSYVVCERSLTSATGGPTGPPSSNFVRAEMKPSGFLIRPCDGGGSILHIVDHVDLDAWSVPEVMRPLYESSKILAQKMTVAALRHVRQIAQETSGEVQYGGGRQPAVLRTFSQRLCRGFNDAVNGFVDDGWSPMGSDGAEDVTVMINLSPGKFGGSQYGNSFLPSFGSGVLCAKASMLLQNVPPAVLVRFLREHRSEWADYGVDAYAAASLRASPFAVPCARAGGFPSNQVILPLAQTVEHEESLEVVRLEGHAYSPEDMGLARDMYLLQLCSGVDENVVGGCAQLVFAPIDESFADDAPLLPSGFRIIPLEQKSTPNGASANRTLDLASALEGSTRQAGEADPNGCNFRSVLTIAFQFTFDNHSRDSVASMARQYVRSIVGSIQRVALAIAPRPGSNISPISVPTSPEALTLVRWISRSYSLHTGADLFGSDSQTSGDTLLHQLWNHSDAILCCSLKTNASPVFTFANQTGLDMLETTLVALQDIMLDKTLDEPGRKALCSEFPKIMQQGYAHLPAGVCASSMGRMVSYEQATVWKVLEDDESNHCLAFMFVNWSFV
Description: EMSA; unlabeled self-competitor at 10x and 100x also tested (gel only); 20 mM Tris-HCl pH 7.5, 300 mM NaCl, 5 mM MgCl2, 0.1% NP-40, 0.5 mM DTT, 20-60 min, room temperature; 6% PAGE in Tris-glycine. The settings on record: protein: recombinant; tags: GST (N-terminal, pGEX4T-1); chain copies: 2; label: 32P; blunt. Background: A gel shift assay detects complexes by their altered migration in electrophoresis.

B1: ABI4 binding motif probe (dsDNA)
DNA 1: TTAGCCGTTATGTAATGATTTATTCTAGTTTCA
DNA 2: TGAAACTAGAATAAATCATTACATAACGGCTAA
On to B1, for which the binding result was “binds”.

B2: BG1 binding motif probe (dsDNA)
DNA 1: AGAAGTTTTGGTAATGATACTGAAACACATTTC
DNA 2: GAAATGTGTTTCAGTATCATTACCAAAACTTCT
As to B2, the binding result was “binds”.
